# Measurements published in IntAct's records for PubMed 23010927.
# B1: Multidrug efflux pump accessory protein AcrZ (Escherichia coli (strain K12)), P0AAW9 (parent)
# chain: MLELLKSLVFAVIMVPVVMAIILGLIYGLGEVFNIFSGVGKKDQPGQNH
# partner: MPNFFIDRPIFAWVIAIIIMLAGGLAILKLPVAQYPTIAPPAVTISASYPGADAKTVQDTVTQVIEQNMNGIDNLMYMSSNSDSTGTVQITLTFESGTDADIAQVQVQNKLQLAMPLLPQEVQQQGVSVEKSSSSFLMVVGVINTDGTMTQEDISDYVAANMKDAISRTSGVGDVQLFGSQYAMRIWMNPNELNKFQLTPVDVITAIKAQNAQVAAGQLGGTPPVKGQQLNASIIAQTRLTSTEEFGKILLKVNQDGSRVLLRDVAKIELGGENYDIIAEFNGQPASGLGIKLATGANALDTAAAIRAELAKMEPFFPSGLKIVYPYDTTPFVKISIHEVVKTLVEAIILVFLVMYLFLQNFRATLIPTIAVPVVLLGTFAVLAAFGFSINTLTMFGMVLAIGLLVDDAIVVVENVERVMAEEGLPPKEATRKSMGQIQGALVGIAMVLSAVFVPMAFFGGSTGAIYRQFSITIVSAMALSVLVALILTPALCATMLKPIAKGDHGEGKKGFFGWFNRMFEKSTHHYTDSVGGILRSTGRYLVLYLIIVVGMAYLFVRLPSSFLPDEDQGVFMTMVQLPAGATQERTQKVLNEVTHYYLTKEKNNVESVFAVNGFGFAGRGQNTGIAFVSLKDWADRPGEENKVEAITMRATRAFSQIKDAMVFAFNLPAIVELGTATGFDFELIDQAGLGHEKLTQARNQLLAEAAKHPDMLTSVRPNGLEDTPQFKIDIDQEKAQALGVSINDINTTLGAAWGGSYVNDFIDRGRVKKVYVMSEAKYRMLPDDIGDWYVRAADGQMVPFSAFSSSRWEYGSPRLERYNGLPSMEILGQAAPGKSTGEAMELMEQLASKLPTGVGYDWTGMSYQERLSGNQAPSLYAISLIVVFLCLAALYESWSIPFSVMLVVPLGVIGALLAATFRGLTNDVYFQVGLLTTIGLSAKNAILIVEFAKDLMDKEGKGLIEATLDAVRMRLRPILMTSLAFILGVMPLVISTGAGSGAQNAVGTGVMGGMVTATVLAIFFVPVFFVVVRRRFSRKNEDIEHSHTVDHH
# Variants of: B1
# Details: with acrb_ecoli acrB
row,Variant,effect of a mutation on the interaction
1,G30R,disrupting interaction
